# From patent publication EP4691498A1, “ANTIBODY-DRUG CONJUGATE, AND PREPARATION METHOD THEREFOR AND USE THEREOF” (Chengdu Scimount Pharmatech Co., Ltd., priority 2023, dated 2024)
# Where two headings read alike, the source gives them in different places.
# Key:
# [1] = Safety evaluation, repeated intravenous infusion (HNSTD); format: in vivo; settings: monkey HNSTD expressed as eribulin amount
# Procedure: Four groups were set up for this test, namely the vehicle control group and SMP-656 groups with different doses (5, 10, 15 mg/kg), with 10 animals in each group, including 5 females and 5 males. Monkeys in each group were intravenously infused (for 30 min) with SMP-656 at doses of 5, 10 and 15 mg/kg at a volume of 10 mL/kg, once every three weeks, for 3 administrations (total 9 weeks), followed by a 4-week recovery period.
# During the test, detailed clinical observations, and body weight and food intake monitoring were performed once a week. Clinical pathology examinations (including: hematology, coagulation, serum biochemistry, and urine analysis) were performed on Day 7, Day 50 and Day 71 respectively. The observation of irritation at the administration site was conducted once a week during the administration period, 2-4 h after administration on the administration day, and once a week during the recovery period. For animals with symptoms, the observation frequency was increased to daily until the symptoms disappeared. All surviving animals underwent accompanying toxicokinetic testing on Day 1 and Day 22. At the end of the administration period and the end of the recovery period, all surviving animals were euthanized as planned, dissected and grossly observed, and tissues and organs were weighed or fixed and preserved for pathological examination.
# [2] = highest non-severe toxic dose; from literature references 1 and 2; cited from earlier work
# [3] = highest non-severe toxic dose; from literature references 1 and 2; cited from earlier work; remark: listed apart in the source
Molecule,Equivalent to eribulin amount [1] [mg/kg],Monkey HNSTD (mg/kg) [2],Monkey HNSTD (mg/kg) [3]
"MORAb-202: ADC with Eribulin as a small-molecule toxin, set DAR of 4",0.12,6^1 mg/kg,–
C=C1C[C@@H]2CC[C@@]34C[C@H]5O[C@H]6[C@@H](O3)[C@H]3O[C@H](CC[C@@H]3O[C@H]6[C@H]5O4)CC(=O)C[C@@H]3[C@@H](OC)[C@@H](C[C@H](O)CN)O[C@H]3C[C@H]3O[C@@H](CC[C@@H]1O2)C[C@@H](C)C3=C [Eribulin],0.03,–,0.03^2 mg/kg
